We go through four molecules from publication PMC3896448 (2014).

For experiment [1], the target named is T1, hen egg-white lysozyme (hen (egg-white), UniProt P00698 19-147). Description: SPR. (Surface plasmon resonance follows binding to a sensor surface in real time, without labels.)
Experiment [2] has as its target T1, hen egg-white lysozyme.

T1 sequence (P00698 19-147): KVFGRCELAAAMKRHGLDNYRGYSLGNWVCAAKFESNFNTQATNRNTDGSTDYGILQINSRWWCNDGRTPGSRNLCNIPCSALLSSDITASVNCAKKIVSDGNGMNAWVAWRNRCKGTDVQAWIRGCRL

B1: OBody AM3L15 (designed binder)
chain: VSPKKTHWTAEITPNLHGSEVVVAGWVAHLGDYGRVKIVKVSDREGGAAVPVYLERGKTPDHLFKVFAELSREDVVVIKGIVEAGWPVALDTGVEIFPSEIWILNKAKPLPID
For B1, the koff (commonly a measure of how fast the partners let go of each other) in experiment [1] was 0.0256 s⁻¹.

B2: OBody AM3L09 (designed binder)
chain: VSPKKTHWTAEITPNLHGSEVVVAGWVAHLGDYGRVKIVKVSDREGGAAVPVYLERGKTPDHLFKVFAELSREDVVVIKGIVEATTVTRWDTGVEIFPSEIWILNKAKPLPID
The molecule B2 returned a koff in experiment [1] of 0.00249 s⁻¹.

B3: OBody AM1L200 (designed binder)
chain: VYPKKTHWTAEITPNLHGTEVVVAGWVAHLGDYGRVMIVKVSDREGGAAVPVYLERGKTPDHLFKVFAELSREDVVVIKGIVEASKQYGSDTGVEIFPSEIWILNKAKPLPID
As to B3, the Kd (commonly the constant that tells how readily two partners part at equilibrium) in experiment [2] was found to be 1200 nM.

B4: OBody AM1L10 (designed binder)
chain: AMGSVYPKKTHWTAEITPNLHGTEVVVAGWVASLGDYGRVKIVKVSDREGGAAVSVYLEYGKTPDHLFKVFAELSREDVVVIKGIVEASKAAADMHNGVEIFPSEIWILNKAK
In experiment [2], B4 yielded a dissociation constant (Kd) of 4600 nM.
